Experimental data reported in article doi:10.1101/2022.12.02.518935.

Molecular target: Biotinylated AF546-labeled BtuF (BtuF*), construct of the smFRET-Q experiments (E. coli)
Assay: smFRET-Q

Sequence of Wild type BtuCD reconstituted in nanodiscs (P06609 whole entry): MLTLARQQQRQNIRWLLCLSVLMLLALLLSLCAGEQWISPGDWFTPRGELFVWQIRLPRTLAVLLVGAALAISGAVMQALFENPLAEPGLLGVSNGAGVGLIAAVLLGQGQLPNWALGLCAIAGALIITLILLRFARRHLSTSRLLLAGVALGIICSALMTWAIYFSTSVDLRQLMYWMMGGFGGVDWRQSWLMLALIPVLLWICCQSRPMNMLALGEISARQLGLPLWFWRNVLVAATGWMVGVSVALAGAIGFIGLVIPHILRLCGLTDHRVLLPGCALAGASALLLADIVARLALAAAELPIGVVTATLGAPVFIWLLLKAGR
Sequence of Wild type BtuCD reconstituted in nanodiscs (P06611 whole entry): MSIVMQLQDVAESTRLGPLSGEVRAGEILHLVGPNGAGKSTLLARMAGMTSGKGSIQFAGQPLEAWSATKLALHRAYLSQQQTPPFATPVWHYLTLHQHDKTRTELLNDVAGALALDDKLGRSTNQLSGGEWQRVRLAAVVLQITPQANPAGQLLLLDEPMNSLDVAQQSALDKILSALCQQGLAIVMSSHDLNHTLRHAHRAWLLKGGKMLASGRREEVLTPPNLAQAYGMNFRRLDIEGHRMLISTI

Substance: Wild type BtuCD reconstituted in nanodiscs (from UniProt P06609 1-326; P06611 1-249) (complex)
- occupancy time of the H state (locked BtuCD-F* complex) with 0.5 mM Mg-ATP: 1 s
